Assay results reported in US20260070987A1.
Residue numbers refer to the chain shown, from its start. Names may count otherwise.

B1: equine IgG4 D312M (antibody, part only; not given: variable domains, not shown: another chain or arm of the molecule)
constant: ASTTAPKVFPLASHSAATSGSTVALGCLVSSYFPEPVTVSWNSGALTSGVHTFPSVLQSSGLYSLSSMVTVPASSLKSQTYICNVAHPASSTKVDKKIVIKECNGGCPAECLQVGPSVFIFPPKPKDVLMISRTPTVTCVVVDVGHDFPDVQFNWYVDGVETHTATTEPKQEQFNSTYRVVSVLPIQHKMWLSGKEFKCKVNNKALPAPVERTISKPTGQPREPQVYVLAPHRDELSKNKVSVTCLVKDFYPTDIDIEWKSNGQPEPETKYSTTPAQLDSDGSYFLYSKLTVETNRWQQGTTFTCAVMHEALHNHYTEKSVSKSPGK
B2: equine IgG4 D312N (antibody, part only; not given: variable domains, not shown: another chain or arm of the molecule)
constant: B1 constant with M190N
B3: equine IgG1 T286S (antibody, part only; not given: Variable domains, not shown: another chain or arm of the molecule)
constant: ASTTAPKVFALAPGCGTTSDSTVALGCLVSGYFPEPVKVSWNSGSLTSGVHTFPSVLQSSGFYSLSSMVTVPASTWTSETYICNVVHAASNFKVDKRIEPIPDNHQKVCDMSKCPKCPAPELLGGPSVFIFPPNPKDTLMITRTPEVTCVVVDVSQENPDVKFNWYMDGVEVRSATTRPKEEQFNSTYRVVSVLRIQHQDWLSGKEFKCKVNNQALPQPIERTITKTKGRSQEPQVYVLAPHPDELSKSKVSVTCLVKDFYPPEINIEWQSNGQPELETKYSTTQAQQDSDGSYFLYSKLSVDRNRWQQGTTFTCGVMHEALHNHYTQKNVSKNPGK
B4: equine IgG4 D312P (antibody, part only; not given: Variable domains, not shown: another chain or arm of the molecule)
constant: B1 constant with M190P
B5: equine IgG4 D312Q (antibody, part only; not given: variable domains, not shown: another chain or arm of the molecule)
constant: B1 constant with M190Q
B6: equine IgG4 D312R (antibody, part only; not given: variable domains, not shown: another chain or arm of the molecule)
constant: B1 constant with M190R
B7: equine IgG4 D312S (antibody, part only; not given: variable domains, not shown: another chain or arm of the molecule)
constant: B1 constant with M190S
B8: equine IgG4 D312T (antibody, part only; not given: variable domains, not shown: another chain or arm of the molecule)
constant: B1 constant with M190T
B9: equine IgG4 D312V (antibody, part only; not given: variable domains, not shown: another chain or arm of the molecule)
constant: B1 constant with M190V
B10: equine IgG4 D312W (antibody, part only; not given: Variable domains, not shown: another chain or arm of the molecule)
constant: B1 constant with M190W
B11: equine IgG4 D312Y (antibody, part only; not given: variable domains, not shown: another chain or arm of the molecule)
constant: B1 constant with M190Y
B12: equine IgG4 Y436A (antibody, part only; not given: variable domains, not shown: another chain or arm of the molecule)
constant: B1 constant with M190D, Y316A
B13: equine IgG4 Y436C (antibody, part only; not given: Variable domains, not shown: another chain or arm of the molecule)
constant: B1 constant with M190D, Y316C
B14: equine IgG1 T286V (antibody, part only; not given: Variable domains, not shown: another chain or arm of the molecule)
constant: B3 constant with S174V
B15: equine IgG4 Y436D (antibody, part only; not given: variable domains, not shown: another chain or arm of the molecule)
constant: B1 constant with M190D, Y316D
B16: equine IgG4 Y436E (antibody, part only; not given: variable domains, not shown: another chain or arm of the molecule)
constant: B1 constant with M190D, Y316E
B17: equine IgG4 Y436F (antibody, part only; not given: variable domains, not shown: another chain or arm of the molecule)
constant: B1 constant with M190D, Y316F
B18: equine IgG4 Y436G (antibody, part only; not given: variable domains, not shown: another chain or arm of the molecule)
constant: B1 constant with M190D, Y316G
B19: equine IgG4 Y436H (antibody, part only; not given: variable domains, not shown: another chain or arm of the molecule)
constant: B1 constant with M190D, Y316H
B20: equine IgG4 Y436I (antibody, part only; not given: variable domains, not shown: another chain or arm of the molecule)
constant: B1 constant with M190D, Y316I
B21: equine IgG4 Y436K (antibody, part only; not given: variable domains, not shown: another chain or arm of the molecule)
constant: B1 constant with M190D, Y316K
B22: equine IgG4 Y436L (antibody, part only; not given: variable domains, not shown: another chain or arm of the molecule)
constant: B1 constant with M190D, Y316L
B23: equine IgG4 Y436M (antibody, part only; not given: variable domains, not shown: another chain or arm of the molecule)
constant: B1 constant with M190D, Y316M
B24: equine IgG4 Y436N (antibody, part only; not given: variable domains, not shown: another chain or arm of the molecule)
constant: B1 constant with M190D, Y316N
B25: equine IgG1 T286W (antibody, part only; not given: Variable domains, not shown: another chain or arm of the molecule)
constant: B3 constant with S174W
B26: equine IgG4 Y436Q (antibody, part only; not given: variable domains, not shown: another chain or arm of the molecule)
constant: B1 constant with M190D, Y316Q

Target: equine FcRn (large alpha subunit p51) / equine beta-2-microglobulin complex, biotinylated (equine) (UniProt P30441)
Chain of UniProt P30441 (P30441 21-118, one chain of several): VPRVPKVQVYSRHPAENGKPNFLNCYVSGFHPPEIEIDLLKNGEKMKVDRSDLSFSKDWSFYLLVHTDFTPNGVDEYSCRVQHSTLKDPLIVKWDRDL
Experiment: SPR (Biacore), pH 6

Row | Binder | Kd [nM]
1 | B1 | 25
2 | B2 | 16.1
3 | B3 | 13.1
4 | B4 | 15.1
5 | B5 | 28.1
6 | B6 | 18.5
7 | B7 | 17.4
8 | B8 | 28.7
9 | B9 | 31.1
10 | B10 | 12.1
11 | B11 | 19.1
12 | B12 | 21.6
13 | B13 | 57
14 | B14 | 16.2
15 | B15 | 25.5
16 | B16 | 91.5
17 | B17 | 12.6
18 | B18 | 34.1
19 | B19 | 61.6
20 | B20 | 12
21 | B21 | 20.3
22 | B22 | 16
23 | B23 | 14.3
24 | B24 | 49.8
25 | B25 | 18.4
26 | B26 | 25.6
